Test results taken from the DeepSol protein solubility set.

Assay: soluble on expression in E. coli; label from the status in PepcDB or PDB records
With “MKKFALATIFALATTSAFAGFNGNNSQGGFQQAAPAAISVKQALSAADNSMITLVGNITQQIDDDEFWFTDGTGQIKIEIKKRVWNGLNVDSKDKVKIYGKLDNEVFEKAELDVLRIEKAE” the “soluble on expression in E. coli” value was “not soluble”. In the case of “MGSDKIHHHHHHMLFWSTVDLGLTFMATSSTLAFDSSNRIDDVKIVIKGYEFGPAVPKLVVKLNQKISKVSTKDLKVETAGVKRQIKKVYLSDKNSQKSTKKEGDYLTIQMPVTYNVDDSSKNASPFVYNTDVFQNQWVKTYPVSIKGLTVSYKGKSTNNLTSKSDAINKRVSPDSEVFTNRGSFSGNYTNPLTKKNEKVDLQYAAYEPKKLQSGNKNPLIIWLHGQGEGGTDPDITLLGNKVTALIKEDIQNHFKSGNQKGTYVLTVQAPTYWMDEGDGSNGQGAGTSRYTEVLMDAIKKYVAKIT”, the “soluble on expression in E. coli” value is reported as “not soluble”. For “MGSDKIHHHHHHMKFNTTIKRLQEAVNKVILAVPAKSLDARFDNINLTLENGMLTMFATDGELSITTNCDVASTDKGNIAIRARTLQDFLRSMYETDVTFDIERQSIGELGTIHIATDKGRYRIPCTFTTKPESQKRNFDLSIELQQNELQDMIHKTLFACSVDGMRPAMMGVLFEFDEEYITAVSTDGHRLVRCRKKPGVTVAEKQKIVVPARVLSIIQRMLTNEEVKMTIDSERRNVKFKTATMELESALIVEPYPNYEAVIPVENEKQLVTDRSQLHDSVKRVGRFSSIGDLKISAQDSQIKVMAENASEGESAQEELPCTFTGEEITIGFNAKFVEAALSHIETEQVSIEMSSPTTAVLFKPKYEERQDDLIILVMPVRINN”, the “soluble on expression in E. coli” value was “not soluble”. For “MQKIKSLMTRQGLKSPQESLSDLGAIESLRVPGKEEFRELREQPSDPQAEQELINSIEQVYFSVDSFDIVKYELEKLPPVLNLQELEAYRDKLKQQQAAVSKKVADLILEKQPAYVKELERVTSLQTGLQLAAVICTNGRRHLNIAKEGFTQASLGLLANQRKRQLLIGLLKSLRTIKTLQRTDVRLSEMLEEEDYPGAIQLCLECQKAASTFKHYSCISELNSKLQDTLEQIEEQLDVALSKICKNFDINHYTKVQQAYRLLGKTQTAMDQLHMHFTQAIHNTVFQVVLGYVELCAGNTDTKFQKLQYKDLCTVCSDLITIHISLL”, the “soluble on expression in E. coli” value was “soluble”. In the case of “MAHHHHHHMVLRPRPLKHSLLRRGRINPAATHREVSLPILLTLVTCPIPRPMQVDRSLWAEGPLQAQHPHSPTHLSRQQVECMLLAGVPPRAFRLQDKPSKVSETAKEAPQGDEEGEPRAQHEADHTTKGGGDDFLDKNGNEKREPPAGSQTAPLPDGGKNAHYYFFLLLPARPATRCHLSADEVVEQRQKFSAMKQLPLGELSVTEVLLNAQPLAHSQGAWTS”, the “soluble on expression in E. coli” value is reported as “not soluble”. In the case of “DIISVALKRHSTKAFDASKKLTAEEAEKIKTLLQYSPSSTNSQPWHFIVASTEEGKARVAKSAAGTYVFNERKMLDASHVVVFCAKTAMDDAWLERVVDQEEADGRFNTPEAKAANHKGRTYFADMHRVDLKDDDQWMAKQVYLNVGNFLLGVGAMGLDAVPIEGFDAAILDEEFGLKEKGFTSLVVVPVGHHSVEDFNATLPKSRLPLSTIVTEC”, the “soluble on expression in E. coli” value is reported as “soluble”. For “MSGRGEPTMKTIIVGIDGSHAAITAALWGVDEAISRAVPLRLVSVIKPTHPSPDDYDRDLAHAERSLREAQSAVEAAGKLVKIETDIPRGPAGPVLVEASRDAEMICVGSVGIGRYASSILGSTATELAEKAHCPVAVMRSKVDQPASDINWIVVRMTDAPDNEAVLEYAAREAKLRQAPILALGGRPEELREIPDGEFERRVQDWHHRHPDVRVYPITTHTGIARFLADHDERVQLAVIGGGEAGQLARLVGPSGHPVFRHAECSVLVVRR”, the “soluble on expression in E. coli” value was “not soluble”. In the case of “RVLQELHESEAQNRALLNAIPDMMLHVCREGTILDFRAGNGCAYAAFGGNLRGRTIADLLPPGAAAQFMAQVGHALATGTMMVCEYELEGPGGLNTHEARIVANGTGTVLAIVRDVT”, the “soluble on expression in E. coli” value is reported as “not soluble”. For “MKLNLKNPLIFFDLETTGVDLVRDRIVEISILKVMPDGSEECKTRRINPERPIPPESTAIHGIRDEDVKDCPPFRSVAKSLAQWIEGCDLAGFNSTRFDVPMLVEEFLRAGVDIDLRHRKLIDVQTIFHKMEPRTLEAATRFYCNRTLENAHSAEADTRATYDVFKAQLDRYEGTLENDMAFLADFSRQSRNVDFAGRLVYDDNDNVIINFGKYRGRKALDVLRTDSGYYGWIMDADFTLNTKQEFTRLRMSLNNPETK”, the “soluble on expression in E. coli” value was “soluble”. For “MARASGASDYRSGELSHQDERGAAHMVDITEKATTKRTAVAAGILRTSAQVVALISTGGLPKGDALATARVAGIMAAKRTSDLIPLCHQLALTGVDVDFTVGQLDIEITATVRSTDRTGVEMEALTAVSVAALTLYDMIKAVDPGALIDDIRVLHKEGGRRGTWTRR”, the “soluble on expression in E. coli” value was “soluble”. With “METNMTFVLKEFDALKSHFNDTVKIILQREKKDKIEDLPNPRKEELQFLTAVLNQLEAKIDELKPRSLASYVHVFYGAMLLVCKDVENNLRVMEKKENSLLFTRLMDGMGISDENIPTSEQNIMFYRGLNKFLNFIYESNDSRKGLKKEHFLQVLSLKKIYSLAKLSYEQEEAAENNALAKLTADGKTKANANSFHVEKPIDSSIVEQFKSWDEMKGALHQLILDELSDKNVAKISALSQARSAQLKFLQTMAEQLDKIPNQSLEPSEKMAILAGAMYIVRGQIAQEYGKDPLSNDKISATVIHTGLSTILHANADCCEDKEVLIAAANKFIRHMVIERPEQSNKKITKESVRENNMFSDIAGFQLISVLTLIQNMIKTCRTDAIEACVTKRKEELEALKPKKEGYSIASSVTGYVGSWFKKAPSMSEEDEEDDLKDQNTAEETSKPTV” the “soluble on expression in E. coli” value was “not soluble”. With “MGSDKIHHHHHHMWIEQRLWTPEGGWTVTETSPGKASLVLYFAAPGALTPESILADLRVAYGNAPILGCTTGGEILGPEVLDDSIVVSALGFDKASVRMASRDLSDVSQSRETGAALARELAGEDLRAIFILSDGTKVNGDSLVAGCLSAVTSDVVVTGGLAGDGARFQTTAVGCSDAMRPGRVAAVGFYGDSLAIGHGSFGGWDEFGPPRTITRSAANVLYELDGEPALDLYKRYLGEEAQGLPGSALLFPLSIRPSGDDAGAEVVRTIVGIDEEAKSMIFAGDVPTGHLARLMRGNFDNLVDGAGRAAEAAAAIKGPSLGLLVSCIGRKLLMGQRIAEEVEIVSDVLGKEASLMGFYSYGEISPHGFTGKCELHNQTMTITTISER” the “soluble on expression in E. coli” value was “not soluble”. In the case of “MHHHHHHSSGVDLGTENLYFQSMWSVRPSDMAKKTFNPIRAIVDNMKVKPNPNKTMISLSIGDPTVFGNLPTDPEVTQAMKDALDSGKYNGYAPSIGFLSSREEIASYYHCPEAPLEAKDVILTSGCSQAIDLCLAVLANPGQNILVPRPGFSLYKTLAESMGIEVKLYNLLPEKSWEIDLKQLEYLIDEKTACLIVNNPSNPCGSVFSKRHLQKILAVAARQCVPILADEIYGDMVFSDCKYEPLATLSTDVPILSCGGLAKRWLVPGWRLGWILIHDRRDIFGNEIRDGLVKLSQRILGPCTIVQGALKSILCRTPGEFYHNTLSFLKSNADLCYGALAAIPGLRPVRPSGAMYLMVGIEMEHFPEFENDVEFTERLVAEQSVHCLPATCFEYPNFIRVVITVPEVMMLEACSRIQEFCEQHYHC”, the “soluble on expression in E. coli” value is reported as “soluble”. For “MGSDKIHHHHHHMVNQGVDISVIAPQSITRHLLKGDPLLAVDSEKKIGNRSYHIYRPKYLTLGNAPRWIQNILEWLRYKVILRVITKHNLKPDAIYGHFWQNAFDIRKYCYKNGTPLFVACGEGDTALEDLVNSLSFAEKKRLSNAVTGVISVSSLNKRKCIEYGLSKAEDIVVLPNSVNSSLFSDINPLNRNSLGVFDDDFLIVFTGGFIHRKGASRLAAAIDKIGDKRIKVIFIGKPVPGDDATPHCNGIVHIGALEHDDIPSYLSAADVFCLPTLNEGCSNAIVEAIACGLPIISSNLPFNDDILDSSNALLVNPESVDDIASAIKQLMDNSDLRQKLAEGSKEKAKSLRIEFRAKKIIEFINRQMQK”, the “soluble on expression in E. coli” value was “not soluble”.
